Molecular target: human PD-1 on CHO cells (human) (UniProt Q15116)
Assay: flow cytometry, CHO cells with human PD-1 incubated with antibody 100 nM, then PD-L2-FITC; competitor PD-L2-FITC

human PD-1 on CHO cells (human), sequence (Q15116 25-288 limits assumed): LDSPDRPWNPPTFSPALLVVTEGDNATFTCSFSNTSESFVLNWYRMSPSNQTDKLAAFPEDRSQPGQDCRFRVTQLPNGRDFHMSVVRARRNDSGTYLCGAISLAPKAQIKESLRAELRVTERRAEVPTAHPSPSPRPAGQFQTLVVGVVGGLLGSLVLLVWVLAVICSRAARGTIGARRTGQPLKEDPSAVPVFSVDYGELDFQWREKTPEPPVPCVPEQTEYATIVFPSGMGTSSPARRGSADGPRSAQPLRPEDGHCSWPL

In the case of control IgG (antibody), the MFI (PD-L2-FITC) in presence of the antibody is reported as 183000.

From patent US20190276534A1
